Laboratory results: PMC12014907

Target: STAT3^136-705, P40763
Test: thermal shift assay
Details: chain shown with the change; 25 μM phosphopeptides; parent: est. 54; read off a plot

Sequence of STAT3^136-705, P40763 (P40763 136-705): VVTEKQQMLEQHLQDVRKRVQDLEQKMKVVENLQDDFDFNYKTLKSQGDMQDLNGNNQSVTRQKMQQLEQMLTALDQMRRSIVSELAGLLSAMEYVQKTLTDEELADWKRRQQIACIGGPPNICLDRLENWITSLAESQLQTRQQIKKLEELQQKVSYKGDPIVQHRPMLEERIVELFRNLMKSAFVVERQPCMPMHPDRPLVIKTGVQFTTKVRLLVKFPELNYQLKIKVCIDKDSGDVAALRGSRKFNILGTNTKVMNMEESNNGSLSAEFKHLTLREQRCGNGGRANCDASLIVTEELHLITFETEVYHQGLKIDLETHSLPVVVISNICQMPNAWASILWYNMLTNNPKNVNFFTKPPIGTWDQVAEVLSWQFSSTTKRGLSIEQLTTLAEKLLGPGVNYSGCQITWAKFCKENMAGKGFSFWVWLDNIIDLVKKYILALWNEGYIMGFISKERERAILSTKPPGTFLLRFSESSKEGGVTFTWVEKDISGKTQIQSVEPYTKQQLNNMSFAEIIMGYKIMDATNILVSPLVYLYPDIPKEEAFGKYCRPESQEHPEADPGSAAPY

Binder: SGYIHQVPSV [gp130 phosphopeptide R168I]
- other: Tm of STAT3 with bound peptide (thermal shift): 55 °C
